This is an account of results in patent US20230365714A1 (published 2023).

As a reminder, the Kd is the constant that tells how readily two partners part at equilibrium. A low value points to higher affinity. In general, koff refers to a measure of how fast the partners let go of each other. Read a high koff as a short-lived complex. As usually defined, the kon is the second-order rate constant of association.

Assay [1] addresses T1, ROR221 shuffle variant (Ig-like domain and CRD of ROR2, kringle domain of ROR1) (human (ROR1/ROR2 chimera), UniProt Q01973 30-937).
T1 chain: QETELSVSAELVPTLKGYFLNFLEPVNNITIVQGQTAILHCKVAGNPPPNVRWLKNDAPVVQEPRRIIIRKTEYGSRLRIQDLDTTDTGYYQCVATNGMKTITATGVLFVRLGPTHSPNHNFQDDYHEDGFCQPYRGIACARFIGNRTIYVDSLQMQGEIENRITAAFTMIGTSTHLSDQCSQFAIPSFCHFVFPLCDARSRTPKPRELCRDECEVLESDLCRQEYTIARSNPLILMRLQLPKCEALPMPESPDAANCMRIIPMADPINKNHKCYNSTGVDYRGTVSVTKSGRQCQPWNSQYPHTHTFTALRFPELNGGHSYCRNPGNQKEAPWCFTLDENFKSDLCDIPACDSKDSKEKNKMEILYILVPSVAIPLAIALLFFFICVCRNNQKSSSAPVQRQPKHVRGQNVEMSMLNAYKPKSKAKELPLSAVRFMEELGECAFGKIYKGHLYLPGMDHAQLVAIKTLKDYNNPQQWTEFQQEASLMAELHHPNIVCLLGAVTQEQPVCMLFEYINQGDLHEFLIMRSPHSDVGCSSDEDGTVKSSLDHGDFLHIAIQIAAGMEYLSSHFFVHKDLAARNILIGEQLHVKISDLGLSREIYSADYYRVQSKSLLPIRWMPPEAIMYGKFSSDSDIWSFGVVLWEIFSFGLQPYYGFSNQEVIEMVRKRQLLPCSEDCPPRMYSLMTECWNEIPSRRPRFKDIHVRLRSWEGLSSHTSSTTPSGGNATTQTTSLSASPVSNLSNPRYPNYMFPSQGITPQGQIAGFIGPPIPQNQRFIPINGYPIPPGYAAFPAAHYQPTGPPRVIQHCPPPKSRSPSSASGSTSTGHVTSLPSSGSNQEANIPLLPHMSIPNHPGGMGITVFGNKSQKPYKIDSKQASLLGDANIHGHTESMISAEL
The assay can be described thus: cell imaging (CellInsight) on CHO cells expressing the shuffle construct. As to the method:
Binding was determined […] using a cell imaging screening system (Celllnsight, Thermo Fisher) as per manufacturer's recommendations. In short, CHO cells expressing shuffle constructs ROR112, ROR121, ROR122, ROR211 or ROR221 (3,000 cells/well in 384-well plates) were incubated with antibody or control samples for 18 h at 37° C./5% CO₂, washed and incubated with an Alexa488-labeled detection antibody for 4 h. Hoechst dye was added and fluorescence images were collected, measuring total spot intensity (RFU).

For assay [2], the target named is T2, his-tagged ROR2 extracellular domain (ROR2-ECD, G&P Biosciences, cat. no. FCL0192) (human, UniProt Q01974 34-403).
T2 construct: Bought protein; also called human ROR2-ECD; recombinant human ROR2-ECD; not shown: his tag
The assay can be described thus: BLI (Octet HTX), antibody on anti-human IgG Fc sensor, ROR2-ECD as analyte. As to the method:
Experiments were carried out while shaking at 1,000 RPM at 30° C.
Anti-Human IgG Fc Capture (AHC) biosensors (ForteBio, cat. no. 18-5060) were pre-conditioned by exposure to 10 mM glycine (Riedel-de Haen, cat. no. 15527) buffer pH 1.7 for 5 s, followed by neutralization in Sample Diluent (ForteBio, cat. no. 18-1048) for 5 s; both steps were repeated 5 times. Next, AHC sensors were loaded with the antibody (2.5 μg/mL in Sample diluent) for 600 s. After a baseline measurement in Sample Diluent (300 s), the association (1,000 s) and dissociation (1,000 s) of a commercially available his-tagged ROR2 extracellular domain (ROR2-ECD, G&P Biosciences, cat. no. FCL0192) was determined using a concentration range of 6.25-400 nM with two-fold dilution steps in Sample Diluent. The calculated molecular mass of ROR2 ECD based on their amino acid sequences of 42.7 kDa was used for calculations. For each antibody a reference sensor was used, which was incubated with Sample Diluent instead of antigen. AHC sensors were regenerated by exposure to 10 mM glycine buffer pH 1.7 for 5 s, followed by neutralization in Sample Diluent for 5 s; both steps were repeated twice. Subsequently sensors were loaded again with antibody for the next cycle of kinetics measurements.
The Y-axis was aligned to the last 10 s of the baseline, Interstep Correction alignment to dissociation and Savitzky-Golay filtering were applied.
(Biolayer interferometry detects binding as a change in optical thickness at a sensor tip.)

B1: chIgG1-ROR2-A (antibody, V domains shown)
VH: QSVEESGGRLVTPGTPLTLTCTVSGFSLSSYSMSWVRQAPGKGLEWIGVIYVNSKTWYANWAKGRFTISKTSTTVDLKITSPTTEDTATYFCARGDAGYTTNSWLWGPGTLVTVSS
VL: AFELTQTPASVSEPVGGTVTIKCQASESIDNYCSWYQQKPGQPPKLLIYQAFKLASGVPSRFRGSGSGTQFTLTISDLESDDAATYYCQSYSGISTTAFGGGTEVVVK
notes: Rabbit-human chimeric antibody; also called ROR2 specific antibody A
On to B1, for which, in assay [1], the “RFU (total spot intensity)” value was 0 RFU and the binding result is on record as “no binding (tested: RFU = 0)”. Moreover, in assay [2], the dissociation constant Kd is 1.6 nM, the koff is 0.00095 s⁻¹ and the kon is 610000 M⁻¹ s⁻¹.
